Patent US20130280250A1 (published 2013)

Target: T1, CD20 (human, UniProt P11836 1-297)
T1 construct: whole, on cells; also called CD20 on live cells; CD20 on Daudi and Raji cells
T1 sequence (looked up): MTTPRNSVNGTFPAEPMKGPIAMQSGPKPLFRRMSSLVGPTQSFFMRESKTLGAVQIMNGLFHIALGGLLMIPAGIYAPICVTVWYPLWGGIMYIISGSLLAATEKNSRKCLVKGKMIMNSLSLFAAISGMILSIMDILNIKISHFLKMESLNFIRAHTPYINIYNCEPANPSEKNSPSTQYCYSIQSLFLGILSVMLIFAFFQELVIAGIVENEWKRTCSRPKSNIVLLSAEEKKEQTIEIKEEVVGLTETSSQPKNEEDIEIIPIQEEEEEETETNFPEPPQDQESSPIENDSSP
Assay: Scatchard analysis, radio-iodinated sample on Raji cells; apparent association constant

B1: veltuzumab (hA20) (antibody, V domains shown)
VH: QVQLQQSGAEVKKPGSSVKVSCKASGYTFTSYNMHWVKQAPGQGLEWIGAIYPGMGDTSYNQKFKGKATLTADESTNTAYMELSSLRSEDTAFYYCARSTYYGGDWYFDVWGQGTTVTVSS
VL: DIQLTQSPSSLSASVGDRVTMTCRASSSVSYIHWFQQKPGKAPKPWIYATSNLASGVPVRFSGSGSGTDYTFTISSLQPEDIATYYCQQWTSNPPTFGGGTKLEIK
For B1, the Ka was 1e+08 M⁻¹.
